Test results from US20230159661A1 (ICHNOS SCIENCES, published 2023).
Numbering of substitutions follows the chain as printed. Each block holds one binder with its values, some of them ahead of it.

Legend:
[1] = biological target: T1, Cynomolgus EGFR-IV_556-638 (cynomolgus); experiment: SPR, chimeric antibody captured on Protein G, analyte 200 nM
T1 chain: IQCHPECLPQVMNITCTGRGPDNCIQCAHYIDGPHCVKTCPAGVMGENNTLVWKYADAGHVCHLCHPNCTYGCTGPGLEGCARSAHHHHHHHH
Procedure: (§1) Measurements were performed on a Biacore 2000 instrument (GE). […] Various human and cynomolgus EGFR constructs were injected as analyte at a concentration of 200 nM at a flow rate of 30 μl/min in HBS-EP buffer. Dissociation time was 4 min. After each binding event, the surface was regenerated with 10 μl of glycine buffer pH 1.5. To verify the integrity of the EGFR domain IV constructs, a polyclonal goat anti-EGFR known to us to contain at least one anti EGFR domain IV binder (AF231, Bio-Techne AG, Zug, Switzerland) was immobilized as described above and human and cynomolgus EGFR constructs were injected as described above.

hEGFR-IV_556-638 = biological target: T2, hEGFR-IV_556-638 (human); experiment: as above
T2 construct: PCR amplified from the His-tagged hEGFR construct; purified on Ni sepharose
T2 chain: T1 chain with V11A, A82P, R83T
Procedure: as §1

hEGFR-IV_580-638 = biological target: T3, hEGFR-IV_580-638 (human); experiment: SPR, antibody captured on Protein G
T3 construct: PCR amplified from the His-tagged hEGFR construct; purified on Ni sepharose
T3 chain: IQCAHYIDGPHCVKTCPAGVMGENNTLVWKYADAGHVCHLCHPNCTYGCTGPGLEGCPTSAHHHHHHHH
Procedure: as §1

[2] = biological target: T4, Cynomolgus EGFR-IV_580-638 (cynomolgus); experiment: SPR, antibody captured on Protein G
T4 chain: T3 chain with P58A, T59R
Procedure: as §1

hEGFR-I-II-III_hErbB3-IV = biological target: T5, hEGFR-I-II-III_hErbB3-IV (human); experiment: ELISA, coated antigen 2 ug/ml
T5 construct: also called chimeric EGFR I-III Her3 IV molecule; EGFR-Her3 chimeric molecule (B)
Procedure: Supernatants from both subclones were harvested and purified using a LC-kappa mouse affinity matrix (Life technologies), according to the manufacturer's instructions. These purified antibodies were tested by ELISA on 96-well plates coated with either soluble human EGFR or recombinant EGFR-Her3 chimeric constructs. These molecules were diluted at 2 ug/ml in PBS and immobilized overnight at 4° C. on a high binding 96-well plates. […] As a control, Panitumumab (Vectibix®) was used at the same concentrations. […] Following this incubation, the plates were washed and incubated with 100 ul of TMB substrate. The reaction was stopped by adding 100 μl of H₂SO₄ 2N and the absorbance was read at 450 nm on a Synergy HT2 spectrophotometer (Biotek, USA; distributor: WITTEC AG, Littau, Switzerland).

[3] = biological target: T6, CD3 on human T cells (PBMCs) (human, UniProt P07766 23-207); experiment: flow cytometry on PBMCs, T cells, anti-human IgG Fc-PE
T6 construct: whole, on cells; also called CD3ε; CD4+ T cells
T6 sequence (P07766 23-207): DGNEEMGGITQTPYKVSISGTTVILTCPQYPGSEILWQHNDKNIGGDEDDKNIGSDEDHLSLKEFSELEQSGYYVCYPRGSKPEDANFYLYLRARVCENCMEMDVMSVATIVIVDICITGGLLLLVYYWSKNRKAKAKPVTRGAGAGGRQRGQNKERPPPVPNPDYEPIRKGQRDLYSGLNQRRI
Procedure: (§2) FACS simple binding was performed using PBMCs (to assess binding to CD3) or NCI-H1703 squamous cancer cells (to assess binding to EGFR). Cells were resuspended at 10⁶ cells/ml in FACS buffer (1×PBS+10% Versene+2% FBS), and 100 ul were added to U-bottom 96-well plates which were then centrifuged at 350 g for 3 min. […] The cells were washed in FACS buffer and stained with the following antibodies (ThermoFisher): anti-human CD4 PE-eF610 (1/100), anti-human CD8a APC (1/100) and anti-human IgG (Fc-gamma specific) PE (1/200) for 20 min 4° C. Cells were washed with FACS buffer and resuspended in FACS buffer containing Sytox green viability dye (1/200), for 20 min at 4° C. and acquired on a CytoFlex (Beckman Coulter).
(§3) For the PBMCs, the cells were also labelled with anti-CD4 or anti-CD8 antibodies.

[4] = biological target: T6, CD3 on human T cells (PBMCs); experiment: flow cytometry on PBMCs, CD8+ T cells, anti-human IgG Fc-PE
Procedure: as §2, §3

[5] = biological target: T7, membrane-bound human EGFR receptor expressed on cells (human, UniProt P00533 25-1210); experiment: flow cytometry on NCI-H1703 squamous cancer cells, anti-human IgG Fc-PE
T7 construct: whole, on cells; the construct transfected into BAF cells is not described; also called EGFR-transfected BAF cells
Procedure: as §2, §3

[6] = biological target: T6, CD3 on human T cells (PBMCs); experiment: flow cytometry on PBMCs, CD4+ T cells, anti-human IgG Fc-PE
Procedure: as §2, §3

[7] = biological target: T8, human EGFR soluble extracellular region with C-terminal poly-histidine tag (hEGFR) (human, UniProt P00533 25-638); experiment: ELISA, single EGFR binding, coated huEGFR-His, anti-human IgG Fab-HRP
T8 construct: also called human EGFR His-tagged protein; soluble human EGFR

[8] = biological target: T8, human EGFR soluble extracellular region …; experiment: dual binding ELISA, coated human EGFR, detection with huCD3-biotin and streptavidin-HRP

binding result [1]: binds
binding result (hEGFR-IV_556-638): binds
binding result (hEGFR-IV_580-638): no binding (tested: 200 nM)
binding result [2]: no binding (tested: 200 nM)
B1: 3A6 chimeric antibody (antibody, human IgG1, kappa, V domains shown)
VH: QVQLKQSGPGLVQPSQSLSITCTVSGFSLTSYGVHWVRQSPGKGLEWLGVIWSGGTTDYNAAFISRLSISQDNSKSQVFFKMNSLQANDTAIYYCAGNQGRTVRPTWFAYWGQGTLVTVSS
VL: DILLTQSPAILSVSPGERVSFSCRASQSIGTSIHWYQQRANGSPRLLIKYASESISGIPSRFSGSGSGTDFTLSINSVESEDIAHYYCQQNSNWPLTFGAGTKLELKR
notes: Mouse-human chimeric IgG1 kappa; also called chimeric 3A6 antibody

binding result (hEGFR-I-II-III_hErbB3-IV): no binding (tested: 10 to 0.01 µg/ml)
B2: 3A6 mouse hybridoma antibody (subclone 3A6A12B5) (antibody, V domains shown)
VH: B1 VH
VL: DILLTQSPAILSVSPGERVSFSCRASQSIGTSIHWYQQRANGSPRLLIKYASESISGIPSRFSGSGSGTDFTLSINSVESEDIAHYYCQQNSNWPLTFGAGTKLELK
notes: Tested as mouse IgG (kappa) from hybridoma: supernatant of the parental clone 3A6, purified antibody of the subclone 3A6A12B5; also called 3A6A12F5; 3A6 hybridoma candidate

binding result [1]: binds
binding result (hEGFR-IV_556-638): binds
binding result (hEGFR-IV_580-638): no binding (tested: 200 nM)
binding result [2]: no binding (tested: 200 nM)
B3: 10E6 chimeric antibody (antibody, human IgG1, kappa, V domains shown)
VH: DVQLQESGPGRVKPSQSLSLTCTVTGYSLTSDYAWSWIRQFPGNRLEWMVYITYSGITTYNPSLKSRISITRDTSKNQFFLQLNSVTTEDTATYYCAGGDYGLSSWFAYWGQGTLVTVSS
VL: DIVLTQSPVTLSVTPGDRVSLSCRASQSISNYLHWYQQKSHESPRLLIKYASQSISGIPSRFSGSGSGTDFTLSINSVETEDFGMYFCQQSNNWPYTFGGGTKLEIKR
notes: Mouse-human chimeric IgG1 kappa; also called chimeric 10E6 antibody

binding result (hEGFR-I-II-III_hErbB3-IV): no binding (tested: 10 to 0.01 µg/ml)
B4: 10E6 mouse hybridoma antibody (subclone 10E6F5) (antibody, V domains shown)
VH: B3 VH
VL: DIVLTQSPVTLSVTPGDRVSLSCRASQSISNYLHWYQQKSHESPRLLIKYASQSISGIPSRFSGSGSGTDFTLSINSVETEDFGMYFCQQSNNWPYTFGGGTKLEIK
notes: Tested as mouse IgG (kappa) from hybridoma: supernatant of the parental clone 10E6, purified antibody of the subclone 10E6F5; also called 10E6 hybridoma candidate

EC50 [3]: 5.93 µg/mL
EC50 [4]: 3.91 µg/mL
EC50 [5]: 0.182 µg/mL
EC50 [6]: 6.05 µg/mL
EC50 [7]: 0.053 µg/mL
EC50 [8]: 0.171 µg/mL
B5: CD3×EGFR_SF3 (bispecific antibody, human IgG1, kappa, L234A L235A)
chain 1: EVQLVESGGGLVQPGGSLRLSCAASGFTFNTYAMNWVRQAPGKGLEWVARIRSKYNNYATYYADSVKSRFTISRDDSKNTLYLQMNSLRAEDTAVYYCVRHGNFGNSYVSYFAYWGQGTTVTVSSGGGGSGGGGSGGGGSEIVVTQSPATLSVSPGERATLSCRSSTGAVTESNYANWVQEKPGQAFRGLIGGANKRAPGVPARFSGSLSGDEATLTISSLQSEDFAVYYCALFYSNTWVFGQGTKLEIKGGGGTQVQLQESGPGLVKPSETLSLTCTVSGGSVSSGDYYWTWIRQSPGKGLEWIGHIYYSGNTNYNPSLKSRLTISIDTSKTQFSLKLSSVTAADTAIYYCVRDRVTGAFDIWGQGTMVTVSSASTKGPSVFPLAPSSKSTSGGTAALGCLVKDYFPEPVTVSWNSGALTSGVHTFPAVLQSSGLYSLSSVVTVPSSSLGTQTYICNVNHKPSNTKVDKKVEPKSCDKTHTCPPCPAPEAAGGPSVFLFPPKPKDTLMISRTPEVTCVVVDVSHEDPEVQFKWYVDGVEVHNAKTKPREEQYNSTFRVVSVLTVLHQDWLNGKEYKCKVSNKALPAPIEKTISKTKGQPREPAVYTLPPSREEMTKNQVKLVCLVTGFYPSDIAVEWESSGQPENNYYTTPPMLDSDGSFSLVSWLNVDKSRWQQGNIFSCSVMHEALHNRFTQKSLSLSPG
chain 2: not shown
chain 3: DKTHTCPPCPAPEAAGGPSVFLFPPKPKDTLMISRTPEVTCVVVDVSHEDPEVKFNWYVDGVEVHNAKTKPREEQYNSTYRVVSVLTVLHQDWLNGKEYKCKVSNKALPAPIEKTISKAKGQPREPEVATFPPSRDELTKNQVTLVCLVTGFYPSDIAVEWESNGQPENNYKTDPPLLESDGSFALSSRLRVDKSRWQQGNVFSCSVMHEALHNHYTQKSLSLSPG
notes: Batches AE042, P1069, P1027, TRS
